Data as given in patent US8871909B2, “Antibodies inhibiting c-Met dimerization and uses thereof” (Pierre Fabre Medicament, priority 2007, dated 2014).

What was measured:
c-Met-Fc-Tag His = target: T1, c-Met-Fc-Tag His (Homo sapiens, UniProt P08581); assay: BIAcore epitope mapping on captured c-Met-Fc; format: binding
T1 construct: c-Met extracellular domain fusion protein (10-15 g/dose/mouse) (R&D Systems, Catalog #358MT); purchased R&D systems 358-MT-CF
From the text: A couple of antibodies unable to bind at the same time on the antigen molecule are classified in the same group (identical or neighbouring binding sites). At the opposite when their respective binding sites are sufficiently distant to allow a simultaneous binding of both antibodies these later are classified into two different groups. In such experiments, the antigen is commonly used as the ligand (immobilized on the sensorchip) and the antibodies are used without any labelling as analytes (solution phase).
All the experiments described have been done on a BIAcore X instrument (GE Healthcare Europe GmbH). A CM5 sensorchip (BIAcore) activated by a mouse anti-Tag-6His Mab (R&D System ref. MAB050) has been prepared following the manufacturer instructions by using the amine coupling kit (BIAcore). The running buffer (HBS-EP) and regeneration buffer (Glycine, HCl) are from BIAcore. A recombinant soluble version of the human HGF receptor produced as a chimeric molecule c-Met-Fc-Tag His was from R&D systems (ref. 358-MT-CF). […]
The ability of an antibody “A” to block the binding of an antibody “B” is calculated by the ratio BIA/C=(R2A/B/R1B)×100: where R2A/B is the response corresponding to the binding of the MAb “B” when it was injected after Mab “A” and R1B is the response corresponding to the binding of the MAb “B” when it was injected first. […]

NCI-H441 cells = assay: Wound healing (migration) assay with NCI-H441 cells; format: cell-based
Experimental: HGF stimulates motility. To determine whether the anti-HGF antibodies were able to inhibit migration, NCI-H441 cells were grown to high density and a gap was introduced with a P200 pipette tip. Cells were then stimulate to migrate across the gap with HGF (100 ng/ml) in presence or in absence of 11E1. Wells with 11E1 alone were also evaluated. Each tested condition was evaluated as a sextuplicate and 3 independent experiments were performed. After an overnight incubation, cells were visualized with an Axio Vision Camera (objective ×4).

NCI-H441 [1] = assay: Established xenograft NCI-H441 tumor model, 224G11 alone or with Navelbine (Example 15); format: in vivo, Swiss nude mice; conditions: 224G11 2 mg loading then 1 mg twice a week i.p.; Navelbine 8 mg/kg i.p. days 5, 12, 19
Experimental: Briefly, NCI-H441 cells from ATCC were routinely cultured in RPMI 1640 medium, 10% FCS and 1% L-Glutamine. Cells were split two days before engraftment so that they were in exponential phase of growth. Ten million NCI-H441 cells were engrafted in PBS to 7 weeks old Swiss nude mice. […] Mice were treated i.p. with a loading dose of 2 mg of 224G11/mouse and then twice a week, for 43 days, with 1 mg of antibody/mouse. The 9G4 MAb was used as an isotype control.
Navelbine® was given by i.p. injections at a dose of 8 mg/kg on days 5, 12, 19 post-cell injection. For combined therapy with both 224G11 and Navelbine®, the two compounds were administered separately. In this experience the 2 compounds were used at their optimal dosage. Tumor volume was measured twice a week and calculated by the formula: p/6×length×width×height.

NCI-H441 [2] = assay: In vivo combination of 224G11 and Docetaxel on NCI-H441 xenograft model; set-up: species or system Athymic nude mice; conditions: D11 to D35; Docetaxel 7.5 mg/kg i.p.
Experimental: NCI-H441 cells from ATCC were routinely cultured in RPMI 1640 medium, 10% FCS, 1% L-Glutamine. Cells were split two days before engraftment being in exponential phase of growth. Nine million NCI-H441 cells were engrafted to Athymic nude mice. […] Mice were treated i.p. either with a loading dose of 2 mg of 224G11 Mab/mouse and then twice a week with 1 mg of antibody/mouse or with 4 injections of Docetaxel (D5, D12, D19, D26) at 7.5 mg/kg. A third group administered with the combine treatment was also included. Docetaxel was given by i.p. injections. Tumor volume was measured twice a week and calculated by the formula: π/6×length×width×height and animal weights were monitored every day over the period of Docetaxel treatment. Statistical analysis was performed at each measured time using either a t-test or a Mann-Whitney test. […] Results are represented in FIG. 47.

MDA-MB-231 = MDA-MB-231 cells co-implanted with MRC5 cells xenograft; format: in vivo, Athymic nude mice; conditions: 2 mg loading dose then 1 mg twice a week i.p.
Experimental: […] and MRC5 cells from ATCC were both cultured in DMEM medium, 10% FCS, 1% L-Glutamine. Cells were split two days before engraftment being in exponential phase of growth. Five million MDA-MB-231 cells and 500 000 MRC5 cells were co-injected s.c. to Athymic nude mice. […] Mice were treated i.p. either with a loading dose of 2 mg of 224G11 Mab/mouse and then twice a week with 1 mg of antibody/mouse. Tumor volume was measured twice a week and calculated by the formula: π/6×length×width×height.

T1 sequence (P08581 25-932 limits assumed): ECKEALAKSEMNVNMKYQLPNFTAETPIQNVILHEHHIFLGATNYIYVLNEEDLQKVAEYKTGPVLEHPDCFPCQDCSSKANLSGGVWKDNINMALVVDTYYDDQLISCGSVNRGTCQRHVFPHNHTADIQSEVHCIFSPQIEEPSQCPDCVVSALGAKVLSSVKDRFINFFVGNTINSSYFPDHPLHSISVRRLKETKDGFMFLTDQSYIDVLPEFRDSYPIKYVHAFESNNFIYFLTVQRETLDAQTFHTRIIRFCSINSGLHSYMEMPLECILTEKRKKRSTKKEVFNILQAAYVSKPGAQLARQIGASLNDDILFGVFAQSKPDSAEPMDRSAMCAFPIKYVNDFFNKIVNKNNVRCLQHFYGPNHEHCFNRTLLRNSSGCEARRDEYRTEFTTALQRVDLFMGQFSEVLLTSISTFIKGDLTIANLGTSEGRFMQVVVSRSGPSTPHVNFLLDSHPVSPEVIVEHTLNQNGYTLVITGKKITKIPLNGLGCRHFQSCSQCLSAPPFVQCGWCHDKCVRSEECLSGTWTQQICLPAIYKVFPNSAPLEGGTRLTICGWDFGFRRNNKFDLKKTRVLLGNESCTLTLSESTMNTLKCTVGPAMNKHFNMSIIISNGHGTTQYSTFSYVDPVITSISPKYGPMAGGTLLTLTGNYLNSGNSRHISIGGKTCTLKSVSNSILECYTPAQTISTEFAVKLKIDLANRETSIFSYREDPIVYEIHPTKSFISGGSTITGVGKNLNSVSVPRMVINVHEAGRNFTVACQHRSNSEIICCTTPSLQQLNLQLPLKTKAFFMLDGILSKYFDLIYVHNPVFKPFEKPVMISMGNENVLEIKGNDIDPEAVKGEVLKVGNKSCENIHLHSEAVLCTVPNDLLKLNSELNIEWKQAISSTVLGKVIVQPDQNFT

Row | Molecule | BIA/C ratio, 2nd Ab (B) 5D5 (c-Met-Fc-Tag His; listed as antibody injected first (A), 5D5 second, 10 μg/ml, below 20% = blocks) | epitope mapping, binding sites (c-Met-Fc-Tag His; sequential injections of 5D5 and 11E1 on captured c-Met-Fc) | effect on cell migration in presence of HGF (NCI-H441 cells; NCI-H441, HGF 100 ng/ml) | agonist effect on cell migration, added alone (NCI-H441 cells; NCI-H441, no HGF) | anti-tumor activity (NCI-H441 [1]) | anti-tumor activity compared to the control group (NCI-H441 [2]) | median tumors growth compared to the control group (MDA-MB-231)
1 | 11E1: murine anti-c-Met monoclonal antibody, IgG1 kappa; heavy chain SEQ ID No. 62, light chain SEQ ID No. 63 (antibody, V domains shown, mus musculus) VH: QVQLQQSGAELAKPGASVKMSCKASGYTFTSYWMNWVKQRPGQGLEWIGYINPTTGSTDYNQKLKDKATLTADKSSNTAYMQLSSLTSEDSAVYYCAIGGYGSWFAYWGQGTLVTVSA VL: QIVLTQSPAIMSASPGEKVTLTCSASSSVSSTYLYWYQQKPGSSPKLWIYTTSILASGVPARFSGSGSGTSYSLTISSMETEDAASYFCHQWSSYPFTFGSGTKLDIK | 84.2% | bind clearly to two distant sites | full antagonist | no agonist effect |  |  | 
2 | 224G11: murine anti-c-Met monoclonal antibody, IgG1 kappa; heavy chain SEQ ID No. 18, light chain SEQ ID No. 21 (antibody, V domains shown, mus musculus) VH: EVQLQQSGPELVKPGASVKISCKTSGYIFTAYTMHWVRQSLGESLDWIGGIKPNNGLANYNQKFKGKATLTVDKSSSTAYMDLRSLTSEDSAVYYCARSEITTEFDYWGQGTALTVSS VL: DIVLTQSPASLAVSLGQRATISCRASESVDSYANSFMHWYQQKPGQPPKLLIYRASNLESGIPARFSGSGSRTDFTLTINPVEADDVATYYCQQSKEDPLTFGSGTKLEMK |  |  |  |  | as efficient as Navelbine® | significant anti-tumor activity | significant difference in median tumors growth
